In assay [1] the target is membrane receptor interacting with BLV. As to the kind of experiment: flow cytometry, tagged RBD on blood neutrophils of one CF patient. Background: Flow cytometry measures light scatter and fluorescence of single cells or particles in a stream.
Assay [2] shares this target. Nature of the assay: flow cytometry, tagged RBD on sputum neutrophils of one CF patient.
Assay [3] shares this target. Nature of the assay: flow cytometry, tagged RBD on blood neutrophils of healthy control donors (N=8).
Assay [4] has the same target. Nature of the assay: flow cytometry, tagged RBD on blood neutrophils of rheumatoid arthritis patients (N=9).
The target in assay [5] is PAR (PeRV A Receptor) receptors: human Riboflavin Transporter 1 (hRFT1 or PAR2) and hRFT3 (or PAR1). As to the kind of experiment: flow cytometry, tagged RBD on blood neutrophils of one CF patient.
Assay [6] has the same target. Nature of the assay: flow cytometry, tagged RBD on sputum neutrophils of one CF patient.
The target is the same in assay [7]. Nature of the assay: flow cytometry, tagged RBD on blood neutrophils of healthy control donors (N=8).
For assay [8] the target is unchanged. Nature of the assay: flow cytometry, tagged RBD on blood neutrophils of rheumatoid arthritis patients (N=9).
Assay [9] deals with T1, GLUT1 membrane receptor (human, UniProt P11166 1-492).
T1 construct: whole, on cells; Endogenous receptor on primary blood or sputum neutrophils
T1 sequence: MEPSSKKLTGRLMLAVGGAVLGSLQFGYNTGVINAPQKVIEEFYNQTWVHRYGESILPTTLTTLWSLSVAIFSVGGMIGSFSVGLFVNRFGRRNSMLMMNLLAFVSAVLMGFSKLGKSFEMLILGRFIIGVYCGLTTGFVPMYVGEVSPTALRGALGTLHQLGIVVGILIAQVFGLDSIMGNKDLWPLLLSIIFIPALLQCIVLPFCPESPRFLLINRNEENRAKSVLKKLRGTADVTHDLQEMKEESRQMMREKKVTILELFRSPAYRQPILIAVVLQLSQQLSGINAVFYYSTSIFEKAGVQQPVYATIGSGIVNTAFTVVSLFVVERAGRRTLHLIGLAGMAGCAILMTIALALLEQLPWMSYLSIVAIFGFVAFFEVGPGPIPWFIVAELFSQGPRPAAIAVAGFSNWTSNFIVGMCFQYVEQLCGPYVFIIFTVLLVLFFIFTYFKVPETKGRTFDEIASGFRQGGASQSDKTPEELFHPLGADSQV
Nature of the assay: flow cytometry, tagged RBD on blood neutrophils of healthy control donors (N=8).

Assay [10] deals with T1, GLUT1 membrane receptor. Nature of the assay: flow cytometry, tagged RBD on blood neutrophils of rheumatoid arthritis patients (N=9).
Assay [11] deals with T2, PiT1 membrane receptor (human, UniProt Q8WUM9 1-679).
T2 construct: whole, on cells; Endogenous receptor on primary blood or sputum neutrophils
T2 sequence: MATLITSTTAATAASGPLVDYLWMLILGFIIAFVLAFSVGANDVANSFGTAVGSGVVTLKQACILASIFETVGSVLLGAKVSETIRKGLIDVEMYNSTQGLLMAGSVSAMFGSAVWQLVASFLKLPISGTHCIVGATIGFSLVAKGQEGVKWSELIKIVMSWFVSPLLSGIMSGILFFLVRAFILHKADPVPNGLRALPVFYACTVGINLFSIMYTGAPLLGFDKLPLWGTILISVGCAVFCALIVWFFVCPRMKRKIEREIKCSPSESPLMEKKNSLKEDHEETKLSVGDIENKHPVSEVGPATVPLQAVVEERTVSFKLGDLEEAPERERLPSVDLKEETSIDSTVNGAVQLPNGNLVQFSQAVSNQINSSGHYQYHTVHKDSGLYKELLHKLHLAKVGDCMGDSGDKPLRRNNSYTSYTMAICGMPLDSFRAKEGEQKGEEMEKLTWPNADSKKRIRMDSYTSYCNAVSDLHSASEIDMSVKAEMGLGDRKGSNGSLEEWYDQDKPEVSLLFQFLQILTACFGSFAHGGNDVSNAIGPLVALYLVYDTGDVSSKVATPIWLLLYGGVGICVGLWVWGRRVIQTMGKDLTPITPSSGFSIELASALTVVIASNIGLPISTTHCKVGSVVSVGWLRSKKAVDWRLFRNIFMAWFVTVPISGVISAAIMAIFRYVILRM
Nature of the assay: flow cytometry, tagged RBD on blood neutrophils of healthy control donors (N=8).

Assay [12] addresses T2, PiT1 membrane receptor. As to the kind of experiment: flow cytometry, tagged RBD on blood neutrophils of rheumatoid arthritis patients (N=9).
The target of assay [13] is T3, ASCT2 membrane receptor (human, UniProt Q15758 1-541).
T3 construct: whole, on cells; Endogenous receptor on primary blood or sputum neutrophils; also called ASTC2
T3 sequence: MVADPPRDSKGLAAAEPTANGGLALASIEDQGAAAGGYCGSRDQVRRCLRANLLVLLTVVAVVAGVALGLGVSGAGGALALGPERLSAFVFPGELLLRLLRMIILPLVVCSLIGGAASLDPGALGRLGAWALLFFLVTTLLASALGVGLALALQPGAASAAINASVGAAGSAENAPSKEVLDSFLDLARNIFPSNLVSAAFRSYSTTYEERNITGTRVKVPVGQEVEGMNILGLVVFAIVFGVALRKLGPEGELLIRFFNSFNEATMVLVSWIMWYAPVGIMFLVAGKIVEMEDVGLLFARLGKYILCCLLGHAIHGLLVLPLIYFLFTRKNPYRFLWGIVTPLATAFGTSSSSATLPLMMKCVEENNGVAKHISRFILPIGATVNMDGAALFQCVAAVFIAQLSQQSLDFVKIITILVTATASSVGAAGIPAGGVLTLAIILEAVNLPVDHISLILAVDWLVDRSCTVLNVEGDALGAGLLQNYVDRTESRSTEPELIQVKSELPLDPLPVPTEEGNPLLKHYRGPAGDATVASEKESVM
Nature of the assay: flow cytometry, tagged RBD on blood neutrophils of healthy control donors (N=8).

Assay [14] addresses T3, ASCT2 membrane receptor. Nature of the assay: flow cytometry, tagged RBD on blood neutrophils of rheumatoid arthritis patients (N=9).
The target of assay [15] is T4, PiT2 membrane receptor (human, UniProt Q08357 1-652).
T4 construct: whole, on cells; Endogenous receptor on primary blood or sputum neutrophils; also called FiT2
T4 sequence: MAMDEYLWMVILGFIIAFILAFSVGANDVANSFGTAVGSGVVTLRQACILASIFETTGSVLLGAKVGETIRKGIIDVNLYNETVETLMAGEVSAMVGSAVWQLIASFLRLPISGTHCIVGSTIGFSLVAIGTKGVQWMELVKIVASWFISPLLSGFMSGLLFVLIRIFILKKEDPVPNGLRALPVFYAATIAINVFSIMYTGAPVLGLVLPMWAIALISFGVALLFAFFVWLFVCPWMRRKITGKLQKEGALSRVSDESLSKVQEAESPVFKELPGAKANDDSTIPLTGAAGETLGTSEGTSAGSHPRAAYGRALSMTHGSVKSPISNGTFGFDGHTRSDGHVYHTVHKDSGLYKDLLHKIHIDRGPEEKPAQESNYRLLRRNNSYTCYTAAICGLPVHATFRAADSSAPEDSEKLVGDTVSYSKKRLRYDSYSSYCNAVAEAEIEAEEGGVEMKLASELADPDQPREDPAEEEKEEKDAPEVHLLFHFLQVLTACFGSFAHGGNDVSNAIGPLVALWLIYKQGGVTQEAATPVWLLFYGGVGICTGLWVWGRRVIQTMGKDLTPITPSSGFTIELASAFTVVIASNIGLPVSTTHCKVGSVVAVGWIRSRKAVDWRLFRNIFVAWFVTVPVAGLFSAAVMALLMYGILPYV
Nature of the assay: flow cytometry, tagged RBD on blood neutrophils of healthy control donors (N=8).

For assay [16], the target named is T4, PiT2 membrane receptor. As to the kind of experiment: flow cytometry, tagged RBD on blood neutrophils of rheumatoid arthritis patients (N=9).

In the case of “Bovine Leukaemia Virus receptor-binding domain (BLV RBD) (from UniProt P25507 34-215) (ligand)”, the values for the deltaGeomean of fluorescence in [1] and in [2] were 0 and 140, respectively. Moreover, the deltaMedian of fluorescence (median) turned out to be 3550 in assay [3] and 2750 in assay [4].

For the molecule “Porcine Endogeneous Retrovirus-A receptor-binding domain (PERVA RBD) (ligand)”, the deltaGeomean of fluorescence in assay [5] was 4160; in [6], 284. The results for the deltaMedian of fluorescence (median) in [7] and in assay [8] were 3740 and 2320, respectively.

B1: Human T Leukaemia Virus-2 receptor-binding domain (HTLV-2 RBD) (ligand)
chain: QQSRCTLTVGISSYHSSPCSPTQPVCTWNLDLNSLTTDQRLHPPCPNLITYSGFHKTYSLYLFPHWIKKPNRQGLGYYSPSYNDPCSLQCPYLGCQSWTCPYTGPVSSPSWKFHSDVNFTQEVSQVSLRLHFSKCGSSMTLLVDAPGYDPLWFITSEPTQPPPTSPPLVHDSDLEHVLTPSTSWTTKILKFIQLTLQSTNYSCMVC
notes: not shown: tag: EGFP, mouse-IgG Fc or rabbit-IgG Fc
Regarding B1, the “deltaMedian of fluorescence (median)” value with GLUT1 membrane receptor [9] amounted to 4670; with GLUT1 membrane receptor [10], 3180.

B2: Koala endogeneous Retrovirus receptor-binding domain (KoRV RBD) (ligand)
chain: NQQHNNPHQPMTLTWQVLSQTGSVVWEKKAVEPPWTWWPSLEPDVCALVAGLESWDIPELTASASQQARPPDSNYEHAYNQITWGTLGCSYPRARTRIARSQFYVCPRDGRSLSEARRCGGLESLYCKEWGCETAGTAYWQPRSSWDLITVGQGHPTGTCERTGWCNPLKIEFTEPGKRFRNWLQGRTWGLRFYVTGHPGVQLTIRLVITSPPPVVVGPDPVLAEQGPPRKIPFLPRVPVPTLSPPASPIPTVQASPPAPSTPSPTTGDRLFGLVQGAFLALNATNPEATESCWLC
notes: as for B1
For the molecule B2, the “deltaMedian of fluorescence (median)” value with PiT1 membrane receptor [11] was found to be 2640; in the assay with PiT1 membrane receptor [12] it was 1880.

B3: Feline endogenous retrovirus receptor-binding domain (RD114 RBD) (ligand)
chain: GFDDPRKAIALVQKQHGKPCECSGGQVSEAPPNSIQQVTCPGKTAYLMTNQKWKCRVTPKISPSGGELQNCPCNTFQDSMHSSCYTEYRQCRRINKTYYTATLLKIRSGSLNEVQILQNPNQLLQSPCRGSINQPVCWSATAPIHISDGGGPLDTKRVWTVQKRLEQIHKAMTPELQYHPLALPKVRDDLSLDARTFDILNTTFRLLQMSNFSLAQDCWLC
notes: as for B1
In the case of B3, the entries for the “deltaMedian of fluorescence (median)” value in the assay with ASCT2 membrane receptor [13] and in the assay with ASCT2 membrane receptor [14] were 1630 and 1650, respectively.

B4: Amphotropic Murine Leukemia Retrovirus receptor-binding domain (AMLV RBD) (ligand)
chain: AESPHQVFNVTWRVTNLMTGRTANATSLLGTVQDAFPKLYFDLCDLVGEEWDPSDQEPYVGYGCKYPAGRQRTRTFDFYVCPGHTVKSGCGGPGEGYCGKWGCETTGQAYWKPTSSWDLISLKRGNTPWDTGCSKVACGPCYDLSKVSNSFQGATRGGRCNPLVLEFTDAGKKANWDGPKSWGLRLYRTGTDPITMFSLTRQVLNVGPRVPIGPNPVLPDQRLPSSPIEIVPAPQPPSPLNTSYPPSTTSTPSTSPTSPSVPQPPPGTGDRLLALVKGAYQALNLTNPDKTQECWLC
notes: as for B1
B4: the entries for the “deltaMedian of fluorescence (median)” value in the assay with PiT2 membrane receptor [15] and with PiT2 membrane receptor [16] were 3930 and 2860, respectively.
